From paper PMC11050682, “https://orcid.org/0009-0003-0282-9605 Pérez-Mora Salvador Conceptualization Methodology Software Validation Formal analysis Investigation Data curation Writing – original draft Writing – review & edit”

Target: T1, drEhHSTF5 (dimeric rEhHSTF5, fraction 10) (Entamoeba histolytica, UniProt C4M5X4 1-329)
T1 sequence: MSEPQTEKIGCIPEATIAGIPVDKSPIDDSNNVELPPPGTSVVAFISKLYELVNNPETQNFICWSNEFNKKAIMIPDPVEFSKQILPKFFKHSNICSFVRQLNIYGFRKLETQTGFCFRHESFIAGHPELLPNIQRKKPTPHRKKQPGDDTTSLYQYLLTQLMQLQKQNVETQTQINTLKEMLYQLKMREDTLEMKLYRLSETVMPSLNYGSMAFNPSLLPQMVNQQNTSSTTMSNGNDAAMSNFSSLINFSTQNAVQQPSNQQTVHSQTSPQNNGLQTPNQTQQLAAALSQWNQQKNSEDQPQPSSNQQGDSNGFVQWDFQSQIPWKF
Test: competition; 150x molar excess; complex reduced
Details: protein: recombinant; tags: N-terminal His6 (pET-28a); chain copies: 2; blunt

B1: HSE_EhPgp5 unlabelled (specific competitor) (dsDNA)
DNA 1: ATAGAAATTTTTCATA
DNA 2: TATGAAAAATTTCTAT
  binding result: binds
